The record followed here is PMC9522936, “Regain flood adaptation in rice through a 14-3-3 protein OsGF14h” (Nature Communications, 2022).

Series [1] addresses T1, His-OsGF14h^SN9816 (rice (Oryza sativa), japonica variety …, UniProt Q2R1D5 1-230).
T1 construct: also called Hap1; source: E. coli Rosetta (DE3), purified (Ni NTA beads)
T1 sequence (looked up): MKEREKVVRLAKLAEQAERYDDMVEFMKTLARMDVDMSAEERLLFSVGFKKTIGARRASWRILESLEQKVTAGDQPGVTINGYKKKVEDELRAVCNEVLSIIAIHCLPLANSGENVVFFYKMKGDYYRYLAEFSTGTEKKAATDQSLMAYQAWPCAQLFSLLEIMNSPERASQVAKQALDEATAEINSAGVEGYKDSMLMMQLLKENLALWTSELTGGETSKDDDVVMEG
As to the kind of experiment: pull-down; GST-OsHOX3 or GST-OsVP1 as bait on GST beads, equal quantities of recombinant proteins in GST pull-down buffer at 4 °C overnight, His-OsGF14h detected by anti-His. Conditions: both partners purified.

Series [2] concerns the target T2, OsHOX3 (Oryza sativa, UniProt Q9XH38 1-229).
T2 sequence: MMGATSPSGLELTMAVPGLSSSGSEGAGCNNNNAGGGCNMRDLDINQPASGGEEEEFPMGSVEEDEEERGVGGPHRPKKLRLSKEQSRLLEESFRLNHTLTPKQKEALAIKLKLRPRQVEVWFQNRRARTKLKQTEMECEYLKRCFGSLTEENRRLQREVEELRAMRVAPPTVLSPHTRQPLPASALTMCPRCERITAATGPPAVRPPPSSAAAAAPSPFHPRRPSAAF
Put plainly: EMSA; without OsGF14h; Chemiluminescent EMSA Kit GS009 (Beyotime) per manufacturer; 6% native polyacrylamide gel; unlabeled competitor 10x and 20x; buffer, pH and temperature not stated. Conditions: protein: recombinant; tags: GST (pGEX4T-1; N-terminal); chain copies: 2; label: biotin 3' end; blunt. On the technique in general: Mobility shift assays separate free from complexed probe on a gel.

B1: GST-OsHOX3 (natural protein, rice, UniProt Q0JKX1 1-229, looked up)
chain: MMGATSPSGLELTMAVPGLSSSGSEGAGCNNNNAGGGCNMRDLDINQPASGGEEEEFPMGSVEEDEEERGVGGPHRPKKLRLSKEQSRLLEESFRLNHTLTPKQKEALAIKLKLRPRQVEVWFQNRRARTKLKQTEMECEYLKRCFGSLTEENRRLQREVEELRAMRVAPPTVLSPHTRQPLPASALTMCPRCERITAATGPPAVRPPPSSAAAAAPSPFHPRRPSAAF
notes: HD-Zip family transcription factor OsHOX3, rice; source: E. coli Rosetta (DE3), purified (GST beads)
Regarding B1, the binding result in series [1] is given as “binds”.

B2: OsPYL5 promoter HD-ZIP3 probe (55 bp) (dsDNA)
DNA 1: AATATAAAACGGTGGGAGTATTAATGATTACATAGTCAATTTTATGTTTGCATTA
DNA 2: TAATGCAAACATAAAATTGACTATGTAATCATTAATACTCCCACCGTTTTATATT
B2: the binding result in series [2] was “binds”.
